Laboratory results: US20250213686A1, “COMPOSITIONS AND METHODS FOR ENGINEERING TREG CELLS FOR TREATMENT OF DIABETES” (Seattle Children's Hospital (dba Seattle Children's …, priority 2021, published 2025)

Key:
Assay type in all cases: cell-based, human
[1] = system: IGRP 305-324 or IGRP 241-260 peptide presented by HLA-DR4-expressing K562 cells; assay: Activation marker response of TCR-transduced CD4+ T cells to cognate peptide; conditions: for cognate peptide concentration required for maximal surface marker expression: relative to cells expressing T1D5-1; for upregulation of functional markers CD154, CD69 and CD137: stimulation with cognate peptide overnight, day 8
Method: (§1) FIGS. 29A-29E show editing of CD4+ T cells to express one of a panel of TCRs, and phenotypic characterization of edited cells.
FIGS. 30A-30B show dose response of T1D TCR-expressing CD4+ T cells to stimulation with IGRP 305-324 peptide. Cells were cultured in the presence of HLA-DR4-expressing K562 cells for a 20 hours, and analyzed by flow cytometry. […] Dashed lines=50% maximum response of each cell population (by donor).
CD4+ cells were thawed and stimulated with anti-CD3/CD28 Dynabeads in vitro (day 0). On day 1 post-thawing, cells were inoculated with a lentivirus encoding a T1D2, T1D5-1, or T1D4 TCR (day 1). On day 3 post-thaw, Dynabeads were removed. In parallel, artificial antigen-presenting cells were generated by transducing K562 cells with a lentivirus encoding an HLA-DR4 capable of presenting IGRP 305-324 or IGRP 241-260. On day 7 post-thaw, transduced CD4+ T cells were stimulated by addition of a given amount of cognate IGRP peptide in the presence of transduced K562 cells and culture overnight. On day 8 post-thaw, expression of activation-associated markers CD69, CD137, and CD154 (FIG. 29B).
In another experiment, CD4+ T cells transduced with a lentivirus encoding T1D2 TCR or control TCR (ZNT266) were cultured in a 3:1 ratio with K562 cells pulsed with IGRP 305-324 peptide at a range of concentrations, as described in the preceding paragraph. After 20 hours of co-culture, expression of surface markers CD154 and CD137 were analyzed by flow cytometry, to quantify sensitivity of T1D2 TCR-expressing cells to cognate peptide IGRP 305-324.

[2] = system: IGRP 305-324 or IGRP 241-260 peptide presented by HLA-DR4-expressing K562 cells; assay: Cytokine production of TCR-transduced CD4+ T cells to cognate peptide; conditions: 5 hours stimulation with cognate peptide, day 14
Method: as §1
On day 14, transduced CD4+ T cells were stimulated for 5 hours with cognate IGRP peptide in the presence of transduced K562 cells, and the production of cytokines IFN-γ and TNF-α to evaluate T cell activation (FIG. 29D).

[3] = system: T1D2 TCR-expressing CD4+ T cells; assay: Alanine-substituted and potential off-target peptide stimulation of T1D2 TCR cells
Method: FIGS. 31A-31D show tolerance of T1D2 to substitutions in IGRP 305-324 peptide. FIGS. 31A and 31B show activation of T1D2 TCR-expressing CD4+ T cells, as measured by CD154 expression intensity (FIG. 31A) or % CD137-expressing cells (FIG. 31B) in the presence of antigen-presenting cells pulsed with one of a panel of alanine-substituted peptides. T cells were cultured for 20 hours in the presence of HLA-DR4-expressing K562 cells that had been pulsed with IGRP 305-324 peptide, or one of a panel of peptides having an alanine substitution at different positions, and analyzed by flow cytometry. FIGS. 31C and 31D show activation of T1D2 TCR-expressing CD4+ T cells, as measured by CD154 expression intensity (FIG. 31C) or % CD137-expressing cells (FIG. 31D) in the presence of antigen-presenting cells pulsed with one of a panel of potential off-target peptides derived from pathogens of human relevance. “Control” indicates CD4+ T cells expressing ZNT266 TCR. […]
After 20 hours of co-culture, expression of surface markers CD154 and CD137 (among CD3+CD4+ cells) were analyzed by flow cytometry, to quantify the potential for off-target activation of cells expressing T1D2 TCR. […]

[4] = system: cognate peptide (IGRP305-324, IGRP241-260, PPI76-90) and APC; assay: Peptide dose response (functional avidity) of TCR-transduced CD4+ T cells; conditions: for IGRP305-324 peptide concentration at which proliferation was reached: T1D5-1: similar to about 70% proliferation, T1D2: proliferation only at this concentration
Excerpt: FIG. 39A depicts a graph showing peptide dose response of T cells expressing T1D2, T1D4, or PPI76 TCR. CD4+ T cells transduced with T1D2, T1D4, or PPI76 TCR were co-cultured with APC in the presence of various concentration of their cognate peptide, IGRP305-324, IGRP241-260, PPI76-90, respectively for 4 days. Representative of three independent experiments.
FIG. 39C depicts a graph showing peptide dose response of T cells expressing T1D2, T1D5-1, or T1D5-2 TCR. CD4+ T cells transduced with T1D2, T1D5-1 or T1D5-2 TCR were co-cultured with APC in the presence of various concentration of their cognate peptide, IGRP305-324 for 4 days. Representative of three independent experiments. For dose response of T cells in A and C, T cells were labeled with CTV before the co-culture and cell proliferation was measured by CTV dilution.
Therefore, these unique features were used as way to begin to explore the impact of TCR affinity on islet-specific EngTregs function. […] We measured proliferation of polyclonal islet-specific Teff in the presence of islet-specific peptides and mDC and EngTregs with T1D2, T1D4 or PPI76. The data were normalized by suppressive activity obtained from suppression assay set up in parallel using CD3/CD28 beads (FIG. 39G). This latter assay provided a baseline control for EngTreg function, as this activation method is not impacted by TCR avidity. […] We then compared T1D2, T1D5-1 and T1D5-2, each of which recognize the same cognate peptide, IGRP305-324, in the context of HLA-DR0401 (Table E6-1) (31). […] Similarly, we measured suppressive capacity of EngTregs expressing T1D2, T1D5-1, or T1D5-2 on proliferation of polyclonal islet Teff in response to islet-specific peptides.

[5] = IGRP 305-324, 20 hours co-culture, 3:1 with K562 cells

Row | Molecule | EC50 of % CD137-expressing cells [1, 5] [µg/mL] | EC50 of CD154 expression [1, 5] [µg/mL] | sensitivity to stimulation with cognate peptide IGRP 305-324 ([1]; compared to cells expressing ZNT266 TCR) | cognate peptide concentration required for maximal surface marker expression [1] | upregulation of functional markers CD154, CD69 and CD137 [1] | IFN-γ and TNF-α production [2] | recognition of predicted potential off-target peptides derived from human pathogens [3] | IGRP305-324 peptide concentration at which proliferation was reached [4] [µg/mL] | functional avidity ([4]; comparison of T1D2, T1D4 and PPI76 TCR) | functional avidity ([4]; comparison of T1D2, T1D5-1 and T1D5-2 (same cognate peptide IGRP305-324)) | cognate peptide concentration giving similar (more than 20%) proliferation [4] [µg/mL]
1 | T1D2 TCR: TCR specific to IGRP 305-324, HLA-DR0401 restricted; TCRα SEQ ID NO: 9, TCRβ SEQ ID NO: 10 (protein) alpha: MAMLLGASVLILWLQPDWVNSQQKNDDQQVKQNSPSLSVQEGRISILNCDYTNSMFDYFLWYKKYPAEGPTFLISISSIKDKNEDGRFTVFLNKSAKHLSLHIVPSQPGDSAVYFCAATRTSGTYKYIFGTGTRLKVLANIQNPDPAVYQLRDSKSSDKSVCLFTDFDSQTNVSQSKDSDVYITDKTVLDMRSMDFKSNSAVAWSNKSDFACANAFNNSIIPEDTFFPSPGKGSFGAFAGCFLASGMARFCPELWSMMSKTPLIGGLG beta: MSISLLCCAAFPLLWAGPVNAGVTQTPKFRILKIGQSMTLQCTQDMNHNYMYWYRQDPGMGLKLIYYSVGAGITDKGEVPNGYNVSRSTTEDFPLRLELAAPSQTSVYFCASSPWGAGGTDTQYFGPGTRLTVLEDLKNVFPPEVAVFEPSEAEISHTQKATLVCLATGFYPDHVELSWWVNGKEVHSGVSTDPQPLKEQPALNDSRYCLSSRLRVSATFWQNPRNHFRCQVQFYGLSENDEWTQDRAKPVTQIVSAEAWGRADCGFTSESYQQGVLSATILYEILLGKATLYAVLVSALVLMAMVKRKDSRG | 0.03 to 0.1 | 0.1 to 0.3 | substantially more sensitive | Lower concentrations of cognate peptide were required | dose-dependent manner | dose-dependent manner | does not recognize any | 3 | lowest functional avidity among the three TCRs | lowest functional avidity | 
2 | T1D4 TCR: TCR specific to IGRP 241-260; TCRα SEQ ID NO: 19, TCRβ SEQ ID NO: 20 (protein) alpha: MKSLRVLLVILWLQLSWVWSQKDQVFQPSTVASSEGAVVEIFCNHSVSNAYNFFWYLHFPGCAPRLLVKGSKPSQQGRYNMTYERFSSSLLILQVREADAAVYYCAVEDLNQAGTALIFGKGTTLSVSSNIQNPDPAVYQLRDSKSSDKSVCLFTDFDSQTNVSQSKDSDVYITDKTVLDMRSMDFKSNSAVAWSNKSDFACANAFNNSIIPEDTFFPSPGKGSFGAFAGCFLASGMARFCPELWSMMSKTPLIGGLG beta: MGSRLLCWVLLCLLGAGPVKAGVTQTPRYLIKTRGQQVTLSCSPISGHRSVSWYQQTPGQGLQFLFEYFSETQRNKGNFPGRFSGRQFSNSRSEMNVSTLELGDSALYLCASSLALGQGNQQFFGPGTRLTVLEDLKNVFPPEVAVFEPSEAEISHTQKATLVCLATGFYPDHVELSWWVNGKEVHSGVSTDPQPLKEQPALNDSRYCLSSRLRVSATFWQNPRNHFRCQVQFYGLSENDEWTQDRAKPVTQIVSAEAWGRADCGFTSESYQQGVLSATILYEILLGKATLYAVLVSALVLMAMVKRKDSRG |  |  |  | Lower concentrations of cognate peptide were required | dose-dependent manner | dose-dependent manner |  |  |  |  | 0.1
3 | T1D5-1 TCR: TCR specific to IGRP 305-324; TCRα SEQ ID NO: 29, TCRβ SEQ ID NO: 30 (protein) alpha: MLLITSMLVLWMQLSQVNGQQVMQIPQYQHVQEGEDFTTYCNSSTTLSNIQWYKQRPGGHPVFLIQLVKSGEVKKQKRLTFQFGEAKKNSSLHITATQTTDVGTYFCAGQTGANNLFFGTGTRLTVIPYIQNPDPAVYQLRDSKSSDKSVCLFTDFDSQTNVSQSKDSDVYITDKTVLDMRSMDFKSNSAVAWSNKSDFACANAFNNSIIPEDTFFPSPGKGSFGAFAGCFLASGMARFCPELWSMMSKTPLIGGLG beta: MGCRLLCCAVLCLLGAVPMETGVTQTPRHLVMGMTNKKSLKCEQHLGHNAMYWYKQSAKKPLELMFVYSLEERVENNSVPSRFSPECPNSSHLFLHLHTLQPEDSALYLCASSQEVGTVPNQPQHFGDGTRLSILEDLNKVFPPEVAVFEPSEAEISHTQKATLVCLATGFFPDHVELSWWVNGKEVHSGVSTDPQPLKEQPALNDSRYCLSSRLRVSATFWQNPRNHFRCQVQFYGLSENDEWTQDRAKPVTQIVSAEAWGRADCGFTSVSYQQGVLSATILYEILLGKATLYAVLVSALVLMAMVKRKDF |  |  |  |  | dose-dependent manner | dose-dependent manner |  | 1.0 |  |  | 
